Assay results published in publication PMC7564285.

Key:
[1] = molecular target: M11 Y56A (murine γ-herpesvirus 68) (UniProt P89884); assay: ITC; BH3D peptide titrated into M11 protein (25 injections of 2 μL); 14 °C; 50 mM HEPES pH 7.5, 150 mM NaCl, 2 mM βME; co-dialyzed overnight; independent model
[2] = molecular target: M11 F48A (murine γ-herpesvirus 68) (UniProt P89884); assay: as above
[3] = molecular target: M11 A63K (murine γ-herpesvirus 68) (UniProt P89884); assay: as above
[4] = molecular target: murine γ-herpesvirus 68 vBCL2 M11, wild type (murine γ-herpesvirus 68) (UniProt P89884); assay: as above
[5] = molecular target: γHV68 M11 F79A (murine γ-herpesvirus 68) (UniProt P89884); assay: ITC; Beclin 1 BH3D peptide titrated into M11 protein, 25 injections of 2 μL, 14 °C; 50 mM HEPES pH 7.5, 150 mM NaCl, 2 mM βME; independent model
[6] = molecular target: γHV68 M11 Y97A (murine γ-herpesvirus 68) (UniProt P89884); assay: as above
[7] = molecular target: γHV68 M11 L128A (murine γ-herpesvirus 68) (UniProt P89884); assay: as above
[8] = molecular target: γHV68 M11 M119A (murine γ-herpesvirus 68) (UniProt P89884); assay: as above
[9] = molecular target: γHV68 M11 L103A (murine γ-herpesvirus 68) (UniProt P89884); assay: as above

Substance Beclin 1 BH3D peptide has a Ka [1] of 300000 M⁻¹, a Kd [1] of 3.38 µM and a dH [1] of -9.03 kcal/mol. The Ka [2] was 158000 M⁻¹, the Kd [2] was 63.4 µM and the dH [2] was -8.63 kcal/mol. For the same substance, the Ka [3] was 160000 M⁻¹, the Kd [3] was 6.5 µM and the dH [3] was -9.49 kcal/mol. The Ka [4] was 1.2e+06 M⁻¹, the Kd [4] was 0.84 µM and the dH [4] was -12.8 kcal/mol. For the same substance, the Ka [5] was 4.6e+06 M⁻¹, the Kd [5] was 2.2 µM and the Ka [6] was 920000 M⁻¹. It also gave a Kd [6] of 1.13 µM, a Ka [7] of 1.12e+06 M⁻¹ and a Kd [7] of 0.9 µM. The Ka [8] was 527000 M⁻¹, the Kd [8] was 1.9 µM and the Ka [9] was 417000 M⁻¹. The Kd [9] was 2.4 µM.
